Laboratory results as given in US20260265360A1 (NEURACLE SCIENCE, published 2026).
Positions count from the first letter of the chain named. One block for each binder: values may come before it. Ends that are not written are not given here.

Assays:
[1] = biological target: T1, FAM19A5 mutant M1 (human); test: ELISA on phage-expressed FAM19A5 mutants M1-M8
T1 chain: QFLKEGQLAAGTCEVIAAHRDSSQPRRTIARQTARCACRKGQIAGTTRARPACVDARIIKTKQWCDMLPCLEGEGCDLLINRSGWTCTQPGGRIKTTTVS

[2] = biological target: T2, FAM19A5 mutant M2 (human); test: ELISA on phage-expressed FAM19A5 mutants M1-M8
T2 chain: T1 chain with V15I, I16V, A17T, A18L, H19D, D21C, S22C, S23N, Q24K, P25N

[3] = biological target: T3, FAM19A5 mutant M3 (human); test: ELISA on phage-expressed FAM19A5 mutants M1-M8
T3 chain: T1 chain with V15I, I16V, A17T, A18L, H19D, R27I, T28E, I29E, A30R, R31S

[4] = biological target: T4, FAM19A5 mutant M4 (human); test: ELISA on phage-expressed FAM19A5 mutants M1-M8
T4 chain: T1 chain with V15I, I16V, A17T, A18L, H19D, A34V, R35K, A37S, R39F, K40P

[5] = biological target: T5, FAM19A5 mutant M6 (human); test: ELISA on phage-expressed FAM19A5 mutants M1-M8
T5 chain: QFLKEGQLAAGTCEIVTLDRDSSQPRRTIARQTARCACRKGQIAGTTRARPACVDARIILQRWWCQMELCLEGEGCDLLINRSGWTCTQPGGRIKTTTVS

[6] = biological target: T6, FAM19A5 mutant M7 (human); test: ELISA on phage-expressed FAM19A5 mutants M1-M8
T6 chain: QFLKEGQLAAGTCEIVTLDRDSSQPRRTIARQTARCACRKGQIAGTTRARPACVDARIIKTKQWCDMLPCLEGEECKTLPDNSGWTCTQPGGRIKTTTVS

[7] = biological target: T7, FAM19A5 mutant M8 (human); test: ELISA on phage-expressed FAM19A5 mutants M1-M8
T7 chain: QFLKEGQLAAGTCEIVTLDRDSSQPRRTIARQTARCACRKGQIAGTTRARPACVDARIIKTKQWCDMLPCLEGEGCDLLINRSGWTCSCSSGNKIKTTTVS

[8] = biological target: T8, FAM19A5 epitope fragment F1, BSA-conjugated (human, also: conjugated to BSA); test: ELISA, plate-coated BSA-conjugated FAM19A5 fragments F1-F6
T8 construct: which number belongs to which fragment is not spelled out
T8 peptide: QLAAGTCEIVTLDR
Method: (§1) Binding of the different anti-FAM19A5 antibodies to the BSA-conjugated peptide fragments F1-F6 was determined by Western blot analysis or ELISA assay. For the Western blot analysis, BSA-conjugated FAM19A5 fragments F1-F6 were separated by SDS polyacrylamide gel electrophoresis and transferred to a nitrocellulose membrane by the standard procedure. The membrane was incubated with the anti-FAM19A5 antibody (e.g., 1-65, […], 1-65-scFv-rabbit Fc-SSS), and the antigen-antibody complexes were detected with the appropriate secondary antibody conjugated with horse-radish peroxidase (anti-rabbit IgG (Fc specific)-HRP, 1:4000 dilution). For the ELISA assay, the following protocol was used. FAM19A5 fragment F1-F6 (diluted to 1 μg/mL in 50 mM carbonate buffer (Biosesang) or to 20 μg/mL for high concentration analysis) were used to coat the wells of 96-well immuno plates (Thermo Scientific) (100 μL/well) overnight at 4° C. and then subsequently washed twice in 1×PBS. The plates were then blocked with the blocking buffer (100 μL/well) for 1 hour at room temperature. During the 1-hour incubation, the relavant anti-FAM19A5 antibodies were diluted to 1 μg/mL (or 20 μg/mL for high concentration analysis) in the diluent buffer. Once the plates were washed (2× using 1×PBS), the diluted anti-FAM19A5 antibodies were added to the appropriate wells, and the plates were incubated at room temperature for 1 hour. The plates were subsequently washed for a total of five times using the washing buffer. Next, the ODP substrate (prepared by dissolving one ODP tablet (O-phenylenediamine Dihydrochloride, Thermo) into 9 mL of sterilized deionized water and 1 mL of 10× stable Peroxide Stable buffer (Theromo)) was added to each of the wells, and the color change reaction was allowed to occur for 10 minutes. This reaction was stopped by adding 100 μL of 2N H2SO4 (Daejung) to the wells. The absorption value of each of the wells was detected at 492 nm using a 96-well microplate reader (Molecular Device).
(§2) As shown in FIGS. 19 and 20A, the anti-FAM19A5 antibody 1-65 bound strongly to fragment F5 as measured by both Western Blot and ELISA assay, respectively.

[9] = biological target: T9, FAM19A5 epitope fragment F2, BSA-conjugated (human, conjugated to BSA); test: as above
T9 peptide: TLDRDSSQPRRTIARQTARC
Method: as §1, §2

[10] = biological target: T10, FAM19A5 epitope fragment F3, BSA-conjugated (human, conjugated to BSA); test: as above
T10 peptide: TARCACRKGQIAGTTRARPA
Method: as §1, §2

[11] = biological target: T11, FAM19A5 epitope fragment F4, BSA-conjugated (human, conjugated to BSA); test: as above
T11 peptide: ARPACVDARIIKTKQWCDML
Method: as §1, §2

[12] = biological target: T12, FAM19A5 epitope fragment F5, BSA-conjugated (human, conjugated to BSA); test: as above
T12 peptide: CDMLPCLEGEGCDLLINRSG
Method: as §1, §2

[13] = biological target: T13, FAM19A5 epitope fragment F6, BSA-conjugated (human, conjugated to BSA); test: as above
T13 peptide: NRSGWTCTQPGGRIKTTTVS
Method: as §1, §2

[14] = biological target: T14, Human FAM19A5 protein (Wild Type) (human, UniProt Q7Z5A7 44-132); test: value given in the HDX-MS sample preparation; method of its determination not stated
T14 construct: also called FAM19A5 antigen; TAFA5

[15] = biological target: T15, F2-01-BSA (#1) (human, conjugated to BSA); test: ELISA, plate-coated F2 mutant peptides (BSA-conjugated)
T15 construct: already contained in the entry; also called mutant F2 peptide fragment #1
T15 peptide: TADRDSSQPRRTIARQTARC

[16] = biological target: T16, F2-02-BSA (#2) (human, conjugated to BSA); test: as above
T16 construct: already contained in the entry; also called mutant F2 peptide fragment #2
T16 peptide: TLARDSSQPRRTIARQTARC

[17] = biological target: T17, F2-04-BSA (#4) (human, conjugated to BSA); test: as above
T17 construct: already contained in the entry; also called mutant F2 peptide fragment #4
T17 peptide: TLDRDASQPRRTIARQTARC

[18] = biological target: T18, F2-05-BSA (#5) (human, conjugated to BSA); test: as above
T18 construct: already contained in the entry; also called mutant F2 peptide fragment #5
T18 peptide: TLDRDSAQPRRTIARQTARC

[19] = biological target: T19, F2-06-BSA (#6) (human, conjugated to BSA); test: as above
T19 construct: already contained in the entry; also called mutant F2 peptide fragment #6
T19 peptide: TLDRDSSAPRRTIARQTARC

[20] = biological target: T20, F2-07-BSA (#7) (human, conjugated to BSA); test: as above
T20 construct: already contained in the entry; also called mutant F2 peptide fragment #7
T20 peptide: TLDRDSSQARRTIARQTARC

[21] = biological target: T21, F2-08-BSA (#8) (human, conjugated to BSA); test: as above
T21 construct: already contained in the entry; also called mutant F2 peptide fragment #8
T21 peptide: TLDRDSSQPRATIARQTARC

[22] = biological target: T22, F2-09-BSA (#9) (human, conjugated to BSA); test: as above
T22 construct: already contained in the entry; also called mutant F2 peptide fragment #9
T22 peptide: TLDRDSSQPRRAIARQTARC

[23] = biological target: T23, F2-10-BSA (#10) (human, conjugated to BSA); test: as above
T23 construct: already contained in the entry; also called mutant F2 peptide fragment #10
T23 peptide: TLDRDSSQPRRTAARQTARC

[24] = biological target: T24, F2-12-BSA (#12) (human, conjugated to BSA); test: as above
T24 construct: already contained in the entry; also called mutant F2 peptide fragment #12
T24 peptide: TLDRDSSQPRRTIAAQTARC

[25] = biological target: T25, F2-13-BSA (#13) (human, conjugated to BSA); test: as above
T25 construct: already contained in the entry; also called mutant F2 peptide fragment #13
T25 peptide: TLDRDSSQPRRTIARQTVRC

[26] = biological target: T9, FAM19A5 epitope fragment F2, …; test: ELISA, plate-coated BSA-conjugated FAM19A5 fragments F1-F6 (data not shown)
Method: Binding of the different anti-FAM19A5 antibodies to the BSA-conjugated peptide fragments F1-F6 was determined by Western blot analysis or ELISA assay. For the Western blot analysis, BSA-conjugated FAM19A5 fragments F1-F6 were separated by SDS polyacrylamide gel electrophoresis and transferred to a nitrocellulose membrane by the standard procedure. The membrane was incubated with the anti-FAM19A5 antibody (e.g., 1-65, […], 1-65-scFv-rabbit Fc-SSS), and the antigen-antibody complexes were detected with the appropriate secondary antibody conjugated with horse-radish peroxidase (anti-rabbit IgG (Fc specific)-HRP, 1:4000 dilution). For the ELISA assay, the following protocol was used. FAM19A5 fragment F1-F6 (diluted to 1 μg/mL in 50 mM carbonate buffer (Biosesang) or to 20 μg/mL for high concentration analysis) were used to coat the wells of 96-well immuno plates (Thermo Scientific) (100 μL/well) overnight at 4° C. and then subsequently washed twice in 1×PBS. The plates were then blocked with the blocking buffer (100 μL/well) for 1 hour at room temperature. […] The absorption value of each of the wells was detected at 492 nm using a 96-well microplate reader (Molecular Device).
as §2

- binding result [1]: binds
- binding result [2]: binds
- binding result [3]: binds
- binding result [4]: no binding
- binding result [5]: binds
- binding result [6]: binds
- binding result [7]: no binding
- binding result [8]: no binding
- binding result [9]: no binding
- binding result [10]: no binding
- binding result [11]: no binding
- binding result [12]: no binding
- binding result [13]: no binding
- Kd [14]: 1 nM
B1: Anti-FAM19A5 antibody 2-13 (antibody, V domains shown)
VH: AVTLDESGGGLQTPGGALSLVCKASGFTFSSHGMFWVRQTPGKGLEYVAEITNDGSGTNYGSAVKGRATISRDNGQSTVRLQLNNLRAEDTGTYFCARSTYECPGGFSCWGDTGQIDAWGHGTEVIVSS
VL: ALTQPSSVSANPGETVKITCSGGSYSYGWFQQKSPGSALVTVIYWDDERPSDIPSRFSGALSGSTNTLTITGVQADDEAVYFCGTEDISGTAGVFGAGTTLTVL
notes: also called clone 2-13

- binding result [2]: no binding
- binding result [15]: binds
- binding result [16]: binds
- binding result [17]: binds
- binding result [18]: binds
- binding result [19]: binds
- binding result [20]: binds
- binding result [21]: binds
- binding result [22]: binds
- binding result [23]: binds
- binding result [24]: binds
- binding result [25]: binds
- binding result [26]: binds
B2: Anti-FAM19A5 antibody 1-28 (antibody, V domains shown)
VH: AVTLDESGGGLQTPGGALSLVCKASGFDFSDYGMGWVRQAPGKGLEWVAAIRSDGSNPSYGSAVKGRATISKDNGRSTVRLQLNNLRAEDTATYYCAKDGNGYCALDAYRSGGYSCGVYPGSIDAWGHGTEVIVSS
VL: ALTQPSSVSANLEGTVEITCSGSGYGYGWYQQKSPGSAPVTVIYQNDKRPSDIPSRFSGSKSGSTGTLTITGVQVEDEAVYYCGSEDSSTLAGIFGAGTTLTVL
